Reference: patent US20220332804A1 (CSL INNOVATION, published 2022)

Experiments:
Assay in all cases: SPR, antibody captured, C2 as analyte;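 further: biacore at 37 °C, anti-C2 mAbs held by immobilised goat anti-human IgG, C2 alanine or serine mutants injected, double-referenced sensorgrams fitted to a 1:1 kinetic or steady-state model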
[1] = target: T1, human C2 A436S (human, UniProt P06681 21-752)
T1 sequence: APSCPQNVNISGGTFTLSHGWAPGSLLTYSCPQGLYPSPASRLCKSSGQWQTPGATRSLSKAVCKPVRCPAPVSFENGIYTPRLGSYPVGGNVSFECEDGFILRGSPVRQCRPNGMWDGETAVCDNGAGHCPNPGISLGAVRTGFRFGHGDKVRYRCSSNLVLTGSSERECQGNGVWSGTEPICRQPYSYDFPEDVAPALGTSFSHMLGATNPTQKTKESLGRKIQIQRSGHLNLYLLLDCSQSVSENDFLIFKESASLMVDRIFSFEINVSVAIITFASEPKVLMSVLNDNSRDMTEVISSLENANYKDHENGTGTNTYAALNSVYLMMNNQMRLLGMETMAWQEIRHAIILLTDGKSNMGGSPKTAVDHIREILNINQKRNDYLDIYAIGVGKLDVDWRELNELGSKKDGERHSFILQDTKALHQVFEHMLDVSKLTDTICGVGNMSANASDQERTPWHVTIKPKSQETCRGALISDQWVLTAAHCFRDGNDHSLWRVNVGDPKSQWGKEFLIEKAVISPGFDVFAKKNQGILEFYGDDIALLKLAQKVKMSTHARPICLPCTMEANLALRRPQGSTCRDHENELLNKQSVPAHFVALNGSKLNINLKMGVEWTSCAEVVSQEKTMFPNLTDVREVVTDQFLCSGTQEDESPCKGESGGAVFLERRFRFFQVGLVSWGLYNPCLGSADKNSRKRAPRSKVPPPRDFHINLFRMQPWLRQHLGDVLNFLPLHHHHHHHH

[2] = target: T2, human C2 L620A (human, UniProt P06681 21-752)
T2 sequence: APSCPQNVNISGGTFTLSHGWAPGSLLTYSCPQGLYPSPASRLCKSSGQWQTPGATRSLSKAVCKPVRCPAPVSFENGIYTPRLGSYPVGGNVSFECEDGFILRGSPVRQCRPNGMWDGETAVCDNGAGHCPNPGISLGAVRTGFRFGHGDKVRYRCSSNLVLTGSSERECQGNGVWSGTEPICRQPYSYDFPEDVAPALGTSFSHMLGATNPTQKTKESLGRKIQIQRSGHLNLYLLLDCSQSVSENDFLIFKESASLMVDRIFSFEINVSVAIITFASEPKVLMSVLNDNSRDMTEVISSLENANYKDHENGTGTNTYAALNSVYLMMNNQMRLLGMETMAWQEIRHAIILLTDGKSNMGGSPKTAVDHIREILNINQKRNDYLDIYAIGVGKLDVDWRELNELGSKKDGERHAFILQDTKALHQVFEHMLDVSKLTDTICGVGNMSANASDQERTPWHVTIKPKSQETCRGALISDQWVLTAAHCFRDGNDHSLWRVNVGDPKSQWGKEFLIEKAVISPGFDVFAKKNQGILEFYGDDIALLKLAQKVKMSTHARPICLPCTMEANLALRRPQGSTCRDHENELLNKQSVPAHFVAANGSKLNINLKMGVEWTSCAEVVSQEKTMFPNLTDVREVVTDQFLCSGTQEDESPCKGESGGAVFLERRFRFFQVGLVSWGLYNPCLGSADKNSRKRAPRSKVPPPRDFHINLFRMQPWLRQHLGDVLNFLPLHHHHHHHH

[3] = target: T3, human C2 N327A (human, UniProt P06681 21-752)
T3 sequence: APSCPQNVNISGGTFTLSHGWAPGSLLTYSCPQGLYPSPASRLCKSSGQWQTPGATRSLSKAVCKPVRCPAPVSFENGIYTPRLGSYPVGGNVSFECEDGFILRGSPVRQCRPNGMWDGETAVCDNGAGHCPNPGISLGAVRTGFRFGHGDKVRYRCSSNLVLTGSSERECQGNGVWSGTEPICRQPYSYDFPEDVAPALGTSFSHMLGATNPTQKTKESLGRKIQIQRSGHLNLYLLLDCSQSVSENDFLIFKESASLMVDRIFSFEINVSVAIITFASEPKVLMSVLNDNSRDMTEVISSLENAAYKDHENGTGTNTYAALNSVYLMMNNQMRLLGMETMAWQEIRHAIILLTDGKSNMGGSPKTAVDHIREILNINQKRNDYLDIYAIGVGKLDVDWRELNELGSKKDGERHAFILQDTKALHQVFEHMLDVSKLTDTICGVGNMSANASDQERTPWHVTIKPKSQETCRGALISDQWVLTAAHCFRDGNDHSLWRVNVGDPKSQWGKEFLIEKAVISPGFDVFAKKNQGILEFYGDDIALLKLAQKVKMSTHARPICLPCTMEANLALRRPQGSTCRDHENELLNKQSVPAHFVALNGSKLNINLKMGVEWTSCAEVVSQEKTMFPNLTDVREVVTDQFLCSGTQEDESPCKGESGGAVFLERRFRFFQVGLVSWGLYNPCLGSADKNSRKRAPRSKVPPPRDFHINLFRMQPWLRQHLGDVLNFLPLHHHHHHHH

[4] = target: T4, human C2 G432A (human, UniProt P06681 21-752)
T4 sequence: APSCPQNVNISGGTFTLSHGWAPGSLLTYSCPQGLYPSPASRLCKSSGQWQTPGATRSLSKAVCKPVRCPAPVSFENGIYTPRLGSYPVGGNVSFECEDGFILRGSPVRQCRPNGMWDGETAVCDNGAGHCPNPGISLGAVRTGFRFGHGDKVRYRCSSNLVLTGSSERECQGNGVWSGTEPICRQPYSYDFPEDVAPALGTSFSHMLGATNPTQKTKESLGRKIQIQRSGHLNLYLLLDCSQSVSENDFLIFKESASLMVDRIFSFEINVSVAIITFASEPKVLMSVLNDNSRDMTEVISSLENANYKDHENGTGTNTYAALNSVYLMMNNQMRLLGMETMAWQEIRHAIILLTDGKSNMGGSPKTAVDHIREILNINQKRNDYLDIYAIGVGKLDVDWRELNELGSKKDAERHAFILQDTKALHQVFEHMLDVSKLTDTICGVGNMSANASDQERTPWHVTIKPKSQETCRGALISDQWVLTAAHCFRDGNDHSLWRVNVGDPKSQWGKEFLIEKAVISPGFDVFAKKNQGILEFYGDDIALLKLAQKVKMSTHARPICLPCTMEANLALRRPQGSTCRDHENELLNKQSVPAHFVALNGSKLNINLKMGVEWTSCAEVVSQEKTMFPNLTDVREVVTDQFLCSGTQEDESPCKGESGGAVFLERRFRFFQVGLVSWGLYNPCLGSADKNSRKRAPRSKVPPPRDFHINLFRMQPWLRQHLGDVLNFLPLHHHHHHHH

B1: RF16-242 (antibody, human IgG4 S228P, lambda, V domains shown)
VH: EVQLLQSGAEVKKPGESLKISCKGSGYSFTSYWIGWVRQMPGKGLEWMGIIYPGDSDTRYSPSFQGQVTISADKSISTAYLQWSSLKASDTAMYYCARRGHYGDYFDYWGQGTLVTVSS
VL: SYELTQPPSVSVSPGQTARITCSGDALPKKYAYWYHQKSGQAPVLVIYEDRRRPSEIPERFSGSSSGTMATLTITGAQVEDEGVYFCYSRDRAGNQRVFGGGTQLTVLG
notes: pH-dependent anti-C2 antibody from a phage display library
- Kd [1]: 4.9 nM
- Kd [2]: 8 nM
- Kd [3]: 37.5 nM
- Kd [4]: 8.8 nM
